# B1: Rho-related GTP-binding protein Rho6 (Homo sapiens), Q92730 (parent)
# chain: MKERRAPQPVVARCKLVLVGDVQCGKTAMLQVLAKDCYPETYVPTVFENYTACLETEEQRVELSLWDTSGSPYYDNVRPLCYSDSDAVLLCFDISRPETVDSALKKWRTEILDYCPSTRVLLIGCKTDLRTDLSTLMELSHQKQAPISYEQGCAIAKQLGAEIYLEGSAFTSEKSIHSIFRTASMLCLNKPSPLPQKSPVRSLSKRLLHLPSRSELISSTFKKEKAKSCSIM
# Variants of: B1
# Conditions: with PLXNB1, O43157-1
# PLXNB1, O43157-1, sequence (O43157 whole entry): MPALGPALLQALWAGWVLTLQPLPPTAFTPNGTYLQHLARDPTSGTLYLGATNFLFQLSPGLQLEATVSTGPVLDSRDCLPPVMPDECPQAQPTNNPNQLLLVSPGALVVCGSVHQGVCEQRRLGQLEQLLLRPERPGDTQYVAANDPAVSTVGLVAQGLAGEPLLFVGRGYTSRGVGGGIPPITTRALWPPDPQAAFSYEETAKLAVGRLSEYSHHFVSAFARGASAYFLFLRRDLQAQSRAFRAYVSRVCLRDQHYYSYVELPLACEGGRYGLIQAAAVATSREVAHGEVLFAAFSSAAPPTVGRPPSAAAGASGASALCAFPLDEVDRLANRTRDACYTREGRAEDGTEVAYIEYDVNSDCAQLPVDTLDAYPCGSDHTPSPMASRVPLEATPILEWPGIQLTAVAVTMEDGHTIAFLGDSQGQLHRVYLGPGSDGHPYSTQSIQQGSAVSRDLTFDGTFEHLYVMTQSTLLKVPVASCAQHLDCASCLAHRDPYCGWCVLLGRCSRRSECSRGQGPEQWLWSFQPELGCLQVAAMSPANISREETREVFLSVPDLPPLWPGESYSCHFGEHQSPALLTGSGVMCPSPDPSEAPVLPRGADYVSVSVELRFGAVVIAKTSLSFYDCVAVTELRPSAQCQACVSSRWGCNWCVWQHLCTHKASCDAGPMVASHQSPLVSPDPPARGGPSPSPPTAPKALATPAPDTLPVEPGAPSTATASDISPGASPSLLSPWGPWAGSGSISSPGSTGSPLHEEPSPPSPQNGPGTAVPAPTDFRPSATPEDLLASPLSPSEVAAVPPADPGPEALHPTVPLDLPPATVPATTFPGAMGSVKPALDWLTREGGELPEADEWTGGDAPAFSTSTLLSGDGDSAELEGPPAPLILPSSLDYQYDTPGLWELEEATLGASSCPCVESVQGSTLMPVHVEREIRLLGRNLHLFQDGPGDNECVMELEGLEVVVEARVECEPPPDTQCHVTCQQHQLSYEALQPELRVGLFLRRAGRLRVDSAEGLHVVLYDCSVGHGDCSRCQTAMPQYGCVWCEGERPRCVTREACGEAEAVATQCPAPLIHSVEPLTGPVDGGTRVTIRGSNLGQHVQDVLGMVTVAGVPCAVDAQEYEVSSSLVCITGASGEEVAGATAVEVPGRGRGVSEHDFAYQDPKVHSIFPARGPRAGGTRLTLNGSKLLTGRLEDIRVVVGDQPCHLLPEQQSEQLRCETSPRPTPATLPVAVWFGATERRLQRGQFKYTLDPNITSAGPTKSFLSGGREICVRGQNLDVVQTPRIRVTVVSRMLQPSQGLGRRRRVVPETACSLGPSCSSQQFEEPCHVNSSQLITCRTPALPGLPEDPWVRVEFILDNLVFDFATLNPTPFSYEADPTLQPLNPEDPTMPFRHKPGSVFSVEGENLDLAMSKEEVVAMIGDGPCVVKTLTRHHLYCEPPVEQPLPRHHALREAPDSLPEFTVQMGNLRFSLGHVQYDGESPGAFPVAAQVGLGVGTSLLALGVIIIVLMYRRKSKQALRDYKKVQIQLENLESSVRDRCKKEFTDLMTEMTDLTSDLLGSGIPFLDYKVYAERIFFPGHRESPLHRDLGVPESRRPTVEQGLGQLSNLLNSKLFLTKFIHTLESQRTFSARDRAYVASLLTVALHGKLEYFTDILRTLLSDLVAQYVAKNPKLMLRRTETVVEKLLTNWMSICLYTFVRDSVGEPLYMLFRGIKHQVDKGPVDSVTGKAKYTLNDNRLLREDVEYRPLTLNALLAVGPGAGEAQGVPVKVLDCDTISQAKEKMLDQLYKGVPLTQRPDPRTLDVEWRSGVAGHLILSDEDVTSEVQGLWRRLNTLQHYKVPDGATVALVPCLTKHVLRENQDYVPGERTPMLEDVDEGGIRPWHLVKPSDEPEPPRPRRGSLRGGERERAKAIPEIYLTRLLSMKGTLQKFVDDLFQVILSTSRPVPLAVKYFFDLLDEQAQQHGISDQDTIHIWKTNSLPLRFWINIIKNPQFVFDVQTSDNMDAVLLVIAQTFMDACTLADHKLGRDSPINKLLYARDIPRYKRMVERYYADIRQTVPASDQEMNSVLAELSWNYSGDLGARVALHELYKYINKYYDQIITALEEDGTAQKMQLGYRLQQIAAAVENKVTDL
row,Variant,effect of a mutation on the interaction
1,F180C,disrupting interaction strength
2,E98D,disrupting interaction strength
3,G70R,disrupting interaction strength

# Variants of: B1
# Conditions: with PLXNB1, O43157-1
# Remark: another data set of the same source
row,Variant,effect of a mutation on the interaction
1,E48A,disrupting interaction strength
2,T45A,disrupting interaction strength

# — IntAct's records for PubMed 25531777
